Data taken from paper PMC6733756.
Positions count from the first letter of the chain named. In names and notes the source's numbering stands. Where two headings read alike, the source gives them in different places. One block for each molecule: values may come before it.

Key:
[1] = biological target: human XCR1 (human) (UniProt P46094)
[2] = biological target: human XCR1 (human) (UniProt P46094); assay: radioligand binding
[3] = biological target: human XCR1 (human) (UniProt P46094); remark: listed apart in the source
[4] = biological target: human XCR1 (human) (UniProt P46094); assay: radioligand binding; remark: listed apart in the source

calcium flux in XCR1-expressing HEK293 cells, EC50 [1]: > 268 nM
fold decrease in affinity against XCL1 CC3 [2]: > 100 fold
Molecule: XCL1 +Gly^N-term (from UniProt P47992 22-114) (ligand)

fold decrease in affinity against XCL1 CC3 [2]: > 100 fold
Molecule: XCL1 ΔVal^1 (from UniProt P47992 22-114) (ligand)

^3H-IP3 accumulation in COS-7 cells transfected with XCR1 and Gqi4myr, EC50 [3]: 14.1 nM
EC50 [2]: 1 nM
B1: XCL1 CC3 (ligand)
chain: VGSEVSDKRTCVSLTTQRLPCSRIKTYTITEGSLRAVIFITKRGLKVCADPQATWVRDCVRSMDRKSNTRNNMIQTKPTGTQQSTNTAVTLTG

EC50 [2]: 8 nM
B2: XCL1 CC3 V5A (ligand)
chain: B1 chain with V5A

calcium flux in XCR1-expressing HEK293 cells, EC50 [1]: > 268 nM
B3: XCL1 CC3 S3A (ligand)
chain: B1 chain with S3A

calcium flux in XCR1-expressing HEK293 cells, EC50 [1]: > 268 nM
fold decrease in affinity against XCL1 CC3 [2]: > 100 fold
B4: XCL1 CC3 G2A (ligand)
chain: B1 chain with G2A

fold decrease in affinity against XCL1 CC3 [2]: > 100 fold
B5: XCL1 CC3 E4A (ligand)
chain: B1 chain with E4A

EC50 [2]: < 1 nM
B6: XCL1 CC3 S6A (ligand)
chain: B1 chain with S6A

calcium flux in XCR1-expressing HEK293 cells, EC50 [1]: > 268 nM
EC50 [4]: < 1 nM
B7: XCL1 CC3 D7A (ligand)
chain: B1 chain with D7A

calcium flux in XCR1-expressing HEK293 cells, EC50 [1]: > 268 nM
EC50 [2]: 5.2 nM
EC50 [4]: < 1 nM
B8: XCL1 CC3 K8A (ligand)
chain: B1 chain with K8A

calcium flux in XCR1-expressing HEK293 cells, EC50 [1]: > 268 nM
B9: XCL1 CC3 V1A (ligand)
chain: B1 chain with V1A

^3H-IP3 accumulation in COS-7 cells transfected with XCR1 and Gqi4myr, EC50 [3]: 17.6 nM
EC50 [2]: 7.7 nM
B10: XCL1 WT (ligand)
chain: B1 chain with C21V, C59V

EC50 [2]: < 1 nM
B11: XCL1 CC3 R9A (ligand)
chain: B1 chain with R9A

EC50 [4]: < 1 nM
B12: XCL1 CC3 T10A (ligand)
chain: B1 chain with T10A
